Experimental data from US7943337B2, “Method for screening a protease” (Asahi Kasei Pharma Corporation, priority 2003, dated 2011).

Key:
Format in all cases: biochemical
[1] = Screening of protease for hemoglobin A1c determination (pH 7.5); conditions: pH 7.5, 37° C. 60 minutes; 550 nm, reference 595 nm; FOD923 developing solution
Protocol: (§1) A screening method is shown in which a protease that cleaves a glycated peptide from N-terminal-glycated pentapeptide of a hemoglobin β-chain without substantially cleaving a glycated amino acid or glycated peptide from N-terminal-glycated pentapeptide of a hemoglobin α-chain. Each 10 μl of a sample for screening was placed in 3 wells of a 96-well plate, respectively. Then, the first well was supplemented with 50 μl of an α-solution, the second well was supplemented with 50 μl of a β-solution, and the third well was supplemented with 50 μl of a control solution. After the plate was incubated at 37° C. for 60 minutes, 50 μl of distilled water and 50 μl of a developing solution were added, and the whole was left at room temperature for 30 minutes. Then, the absorbance at a measuring wavelength of 550 nm and a reference wavelength of 595 nm were determined using a Microplate Reader (model 550, manufactured by Bio-Rad), to select a sample having a difference in the absorbance between the β-solution-supplemented well and the control solution-supplemented well larger than a difference in the absorbance between the α-solution-supplemented well and the control solution-supplemented well. Thus the protease of object was screened. The samples to be used include: carboxypeptidase B (manufactured by Sigma-Aldrich Corp.); carboxypeptidase W (manufactured by Wako Pure Chemical Industries, Ltd.); carboxypeptidase Y (manufactured by Oriental Yeast Co., Ltd.); protease (type XXVII nagase: manufactured by Sigma-Aldrich Corp.); protease (type VIII Subtilisin Carlsberg: manufactured by Sigma-Aldrich Corp.); protease (type XXIV Bacterial: manufactured by Sigma-Aldrich Corp.); Proteinase K (manufactured by Wako Pure Chemical Industries, Ltd.); neutral proteinase (manufactured by Toyobo Co., Ltd.); carboxypeptidase A (manufactured by Wako Pure Chemical Industries, Ltd.); thermolysin (manufactured by Wako Pure Chemical Industries, Ltd.); and distilled water. To confirm a degree of color development caused by a developing solution, 10 μl of 1 mM FVH (manufactured by Peptide Institute Inc.) and 1 mM FVL (manufactured by Peptide Institute Inc.) were placed in a well severally, followed by adding 50 μl of the control solution. The whole was incubated at 37° C. for 60 minutes. Then, 50 μl of distilled water and 50 μl of the developing solution were added and the whole was left at room temperature for 30 minutes, followed by the determination in a similar manner as described above.
(§2) 0.2 mM α-Glycated pentapeptide (manufactured by Peptide Institute Inc.)
(§3) 0.09% 4-Aminoantipyrine (manufactured by Wako Pure Chemical Industries, Ltd.)
(§4) 0.06% TODB (manufactured by Dojindo Laboratories)
(§5) 15 U/ml Peroxidase (manufactured by Sigma-Aldrich Corp.)
(§6) Various bacteria were cultured with shaking in Difco Lactobacilli MRS Broth (manufactured by Becton, Dickinson and Company), a MM medium (2.5% mannose, 2.5% beer yeast extract, pH7.0), and a YPG medium (2% glucose, 1% polypeptone, 2% yeast extract, 0.1% potassium dihydrogen phosphate, 0.05% magnesium sulfate heptahydrate, pH 7.0) at a temperature of from 28 to 30° C. for 1 to 7 days. Then, cells were removed by centrifugation from the culture solutions to obtain culture supernatants. A sample was prepared by diluting the obtained culture supernatants 10-fold with a 10 mM potassium phosphate buffer (pH7.5), and the determination was performed in a similar manner as Example 1.

[2] = as above; conditions: for specificity for β-chain over α-chain N-terminal glycated pentapeptide: pH 7.5; for β-Solution (absorbance, RAW DATA): pH 7.5, 37° C. 60 minutes, 550 nm, reference 595 nm, FOD923 developing solution
Protocol: as §1
(§7) 0.2 mM β-Glycated pentapeptide (manufactured by Peptide Institute Inc.)
as §3, §4, §5, §6

[3] = Screening of protease (pH 7.5), control solution without substrate; conditions: pH 7.5, no substrate; 550 nm, reference 595 nm
Protocol: as §1, §3, §4, §5, §6

[4] = Screening of protease for hemoglobin A1c determination (pH 3.5); conditions: pH 3.5, 37° C. 60 minutes; 550 nm, reference 595 nm; FOD923 developing solution
Protocol: (§8) A screening method is shown in which a protease that cleaves a glycated peptide from N-terminal-glycated pentapeptide of a hemoglobin β-chain without substantially cleaving a glycated amino acid or glycated peptide from N-terminal-glycated pentapeptide of a hemoglobin α-chain. Each 10 μl of a sample for screening was placed in 3 wells of a 96-well plate, respectively. Then, the first well was supplemented with 50 μl of an α-solution, the second well was supplemented with 50 μl of a β-solution, and the third well was supplemented with 50 μl of a control solution. After the plate was incubated at 37° C. for 60 minutes, 50 μl of pH-regulating solution and 50 μl of a developing solution were added, and the whole was left at room temperature for 30 minutes. Then, the absorbance at a measuring wavelength of 550 nm and a reference wavelength of 595 nm were determined using a Microplate Reader (model 550, manufactured by Bio-Rad), to select a sample having a difference in the absorbance between the β-solution-supplemented well and the control solution-supplemented well larger than a difference in the absorbance between the α-solution-supplemented well and the control solution-supplemented well. Thus the protease of object was screened. The samples to be used include: carboxypeptidase B (manufactured by Sigma-Aldrich Corp.); carboxypeptidase W (manufactured by Wako Pure Chemical Industries, Ltd.); carboxypeptidase Y (manufactured by Oriental Yeast Co., Ltd.); protease (type XXVII nagase: manufactured by Sigma-Aldrich Corp.); protease (type VIII Subtilisin Carlsberg: manufactured by Sigma-Aldrich Corp.); protease (type XXIV Bacterial: manufactured by Sigma-Aldrich Corp.); Proteinase K (manufactured by Wako Pure Chemical Industries, Ltd.); neutral proteinase (manufactured by Toyobo Co., Ltd.); and distilled water. To confirm a degree of color development caused by a developing solution, 10 μl of 1 mM FVH (manufactured by Peptide Institute Inc.) and 1 mM FVL (manufactured by Peptide Institute Inc.) were placed in a well severally, followed by adding 50 μl of the control solution. The whole was incubated at 37° C. for 60 minutes. Then, 50 μl of a pH-regulating solution and 50 μl of the developing solution were added and the whole was left at room temperature for 30 minutes, followed by the determination in a similar manner as described above.
(§9) 50 mM Acetate-sodium acetate (pH3.5)
as §2
(§10) 0.09% 4-aminoantipyrine (manufactured by Wako Pure Chemical Industries, Ltd.)
as §4, §5

[5] = as above; conditions: for β-Solution (absorbance, RAW DATA): pH 3.5, 37° C. 60 minutes, 550 nm, reference 595 nm, FOD923 developing solution
Protocol: as §8, §9, §7, §10, §4, §5

[6] = Screening of protease (pH 3.5), control solution without substrate; conditions: pH 3.5, no substrate; 550 nm, reference 595 nm
Protocol: as §8, §9, §10, §4, §5

| Molecule | α-Solution (absorbance, RAW DATA) [1] | specificity for β-chain over α-chain N-terminal glycated pentapeptide [2] | β-Solution (absorbance, RAW DATA) [2] | control solution (absorbance, RAW DATA) [3] | α-Solution (absorbance, RAW DATA) [4] | specificity for β-chain over α-chain N-terminal glycated pentapeptide ([5]; pH 3.5) | β-Solution (absorbance, RAW DATA) [5] | control solution (absorbance, RAW DATA) [6] |
| --- | --- | --- | --- | --- | --- | --- | --- | --- |
| carboxypeptidase B: carboxypeptidase B (manufactured by Sigma-Aldrich Corp.) (protein, UniProt P09955 111-416, looked up) Carboxypeptidase B: TTGHSYEKYNNWETIEAWTKQVTSENPDLISRTAIGTTFLGNNIYLLKVGKPGPNKPAIFMDCGFHAREWISHAFCQWFVREAVLTYGYESHMTEFLNKLDFYVLPVLNIDGYIYTWTKNRMWRKTRSTNAGTTCIGTDPNRNFDAGWCTTGASTDPCDETYCGSAAESEKETKALADFIRNNLSSIKAYLTIHSYSQMILYPYSYDYKLPENNAELNNLAKAAVKELATLYGTKYTYGPGATTIYPAAGGSDDWAYDQGIKYSFTFELRDKGRYGFILPESQIQATCEETMLAIKYVTNYVLGHL | 0.036 | cleave a glycated peptide from an N-terminal glycated pentapeptide of a hemoglobin β-chain without substantially cleaving | 0.127 | 0.028 | 0.063 | cleaves a glycated peptide from an N-terminal glycated pentapeptide of a hemoglobin β-chain without substantially cleaving | 0.147 | 0.060 |
| carboxypeptidase A: carboxypeptidase A (manufactured by Wako Pure Chemical Industries, Ltd.) (protein, UniProt P00730 111-419, looked up) Carboxypeptidase A1: ARSTNTFNYATYHTLDEIYDFMDLLVAEHPQLVSKLQIGRSYEGRPIYVLKFSTGGSNRPAIWIDLGIHSREWITQATGVWFAKKFTEDYGQDPSFTAILDSMDIFLEIVTNPDGFAFTHSQNRLWRKTRSVTSSSLCVGVDANRNWDAGFGKAGASSSPCSETYHGKYANSEVEVKSIVDFVKDHGNFKAFLSIHSYSQLLLYPYGYTTQSIPDKTELNQVAKSAVEALKSLYGTSYKYGSIITTIYQASGGSIDWSYNQGIKYSFTFELRDTGRYGFLLPASQIIPTAQETWLGVLTIMEHTLNNLY | 0.022 | – | 0.145 | 0.018 | – | – | – | – |
| protease type VIII: protease (type VIII Subtilisin Carlsberg: manufactured by Sigma-Aldrich Corp.) (protein, UniProt P00780 106-379, looked up) Subtilisin Carlsberg: AQTVPYGIPLIKADKVQAQGFKGANVKVAVLDTGIQASHPDLNVVGGASFVAGEAYNTDGNGHGTHVAGTVAALDNTTGVLGVAPSVSLYAVKVLNSSGSGSYSGIVSGIEWATTNGMDVINMSLGGASGSTAMKQAVDNAYAKGVVVVAAAGNSGSSGNTNTIGYPAKYDSVIAVGAVDSNSNRASFSSVGAELEVMAPGAGVYSTYPTNTYATLNGTSMASPHVAGAAALILSKHPNLSASQVRNRLSSTATYLGSSFYYGKGLINVEAAAQ | 0.023 | – | 0.020 | 0.012 | 0.019 | – | 0.018 | 0.016 |
| thermolysin: thermolysin (manufactured by Wako Pure Chemical Industries, Ltd.) (protein, UniProt P00800 233-548, looked up) Thermolysin: ITGTSTVGVGRGVLGDQKNINTTYSTYYYLQDNTRGNGIFTYDAKYRTTLPGSLWADADNQFFASYDAPAVDAHYYAGVTYDYYKNVHNRLSYDGNNAAIRSSVHYSQGYNNAFWNGSQMVYGDGDGQTFIPLSGGIDVVAHELTHAVTDYTAGLIYQNESGAINEAISDIFGTLVEFYANKNPDWEIGEDVYTPGISGDSLRSMSDPAKYGDPDHYSKRYTGTQDNGGVHINSGIINKAAYLISQGGTHYGVSVVGIGRDKLGKIFYRALTQYLTPTSNFSQLRAAAVQSATDLYGSTSQEVASVKQAFDAVGVK | 0.053 | cleave a glycated peptide from an N-terminal glycated pentapeptide of a hemoglobin β-chain without substantially cleaving | 0.249 | 0.055 | – | – | – | – |
| proteinase K: Proteinase K (manufactured by Wako Pure Chemical Industries, Ltd.) (protein, UniProt P06873 106-384, looked up) Proteinase K: AAQTNAPWGLARISSTSPGTSTYYYDESAGQGSCVYVIDTGIEASHPEFEGRAQMVKTYYYSSRDGNGHGTHCAGTVGSRTYGVAKKTQLFGVKVLDDNGSGQYSTIIAGMDFVASDKNNRNCPKGVVASLSLGGGYSSSVNSAAARLQSSGVMVAVAAGNNNADARNYSPASEPSVCTVGASDRYDRRSSFSNYGSVLDIFGPGTSILSTWIGGSTRSISGTSMATPHVAGLAAYLMTLGKTTAASACRYIADTANKGDLSNIPFGTVNLLAYNNYQA | 0.031 | – | 0.077 | 0.017 | 0.024 | – | 0.026 | 0.023 |
| carboxypeptidase Y: carboxypeptidase Y (manufactured by Oriental Yeast Co., Ltd.) (protein, UniProt P00729 112-532, looked up) Carboxypeptidase Y: KIKDPKILGIDPNVTQYTGYLDVEDEDKHFFFWTFESRNDPAKDPVILWLNGGPGCSSLTGLFFELGPSSIGPDLKPIGNPYSWNSNATVIFLDQPVNVGFSYSGSSGVSNTVAAGKDVYNFLELFFDQFPEYVNKGQDFHIAGESYAGHYIPVFASEILSHKDRNFNLTSVLIGNGLTDPLTQYNYYEPMACGEGGEPSVLPSEECSAMEDSLERCLGLIESCYDSQSVWSCVPATIYCNNAQLAPYQRTGRNVYDIRKDCEGGNLCYPTLQDIDDYLNQDYVKEAVGAEVDHYESCNFDINRNFLFAGDWMKPYHTAVTDLLNQDLPILVYAGDKDFICNWLGNKAWTDVLPWKYDEEFASQKVRNWTASITDEVAGEVKSYKHFTYLRVFNGGHMVPFDVPENALSMVNEWIHGGFSL | 0.240 | – | 0.209 | 0.031 | 0.195 | – | 0.206 | 0.034 |
